Measurements taken from patent US20250382371A1 (NATIONAL INSTITUTES OF BIOMEDICAL INNOVATION HEALTH AND …, published 2025).

T1: hFCRL1/FcRH1-His (manufactured by R&D Systems) (human, UniProt Q96LA6 17-307)
T1 construct: Bought His-tagged recombinant human FCRL1; The protein in the assay is soluble and is probably only the extracellular part; not shown: His tag
T1 sequence: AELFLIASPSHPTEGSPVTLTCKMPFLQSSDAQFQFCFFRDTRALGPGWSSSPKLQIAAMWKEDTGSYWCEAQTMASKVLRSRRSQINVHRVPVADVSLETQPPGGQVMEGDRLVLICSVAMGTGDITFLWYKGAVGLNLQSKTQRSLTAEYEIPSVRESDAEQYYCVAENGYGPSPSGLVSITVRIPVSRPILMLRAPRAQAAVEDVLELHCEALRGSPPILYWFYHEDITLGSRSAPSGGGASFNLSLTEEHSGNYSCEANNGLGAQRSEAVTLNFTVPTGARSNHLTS

T2: cynomolgus monkey FCRL1 (XP_015310712), transiently expressed on 293T cells (cynomolgus monkey)
T2 chain: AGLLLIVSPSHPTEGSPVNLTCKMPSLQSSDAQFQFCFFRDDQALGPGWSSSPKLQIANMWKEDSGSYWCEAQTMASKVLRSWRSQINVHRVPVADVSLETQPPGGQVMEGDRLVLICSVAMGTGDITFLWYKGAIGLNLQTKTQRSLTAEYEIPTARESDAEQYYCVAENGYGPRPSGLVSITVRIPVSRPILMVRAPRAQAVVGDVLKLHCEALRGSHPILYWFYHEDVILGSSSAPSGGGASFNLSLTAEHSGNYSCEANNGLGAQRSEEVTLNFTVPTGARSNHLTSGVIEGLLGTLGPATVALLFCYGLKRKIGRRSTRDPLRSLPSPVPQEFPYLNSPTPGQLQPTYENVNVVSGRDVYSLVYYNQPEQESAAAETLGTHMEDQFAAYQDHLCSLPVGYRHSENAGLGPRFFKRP

T3: human FCRL1 (NCBI accession number: NP_443170.1), transiently expressed on 293T cells (human, UniProt Q96LA6 17-429)
T3 construct: also called Fc receptor-like protein 1; CD307a
T3 sequence: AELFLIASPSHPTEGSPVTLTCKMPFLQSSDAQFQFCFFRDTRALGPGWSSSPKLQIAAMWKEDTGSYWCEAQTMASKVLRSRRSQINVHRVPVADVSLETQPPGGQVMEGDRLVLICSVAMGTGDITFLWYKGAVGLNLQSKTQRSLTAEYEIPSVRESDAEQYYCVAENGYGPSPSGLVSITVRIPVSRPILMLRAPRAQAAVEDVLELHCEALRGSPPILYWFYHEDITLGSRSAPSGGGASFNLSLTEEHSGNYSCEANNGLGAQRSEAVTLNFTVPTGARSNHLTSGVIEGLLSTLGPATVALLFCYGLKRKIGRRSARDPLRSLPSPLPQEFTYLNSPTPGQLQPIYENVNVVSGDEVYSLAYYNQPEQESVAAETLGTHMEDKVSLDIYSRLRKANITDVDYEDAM


Assays:
[1] = biological target: T1, hFCRL1/FcRH1-His (manufactured by R&D …); assay: SPR (Biacore 8K+), antibody captured by anti-human IgG, hFCRL1/FcRH1-His as analyte; Steady state affinity model
Procedure: (§1) For the purpose of comparing the binding activity of the DK681 chimeric antibody (chDK681) and the DK1142 chimeric antibody (chDK1142) obtained by connecting […] of the DK681 and DK1142 mouse antibodies obtained in Example 4 to a human IgG1 (S239C) constant region with the binding activity of the anti-FCRL1 humanized antibody obtained in Example 10 to human FCRL1, the binding activity to hFCRL1/FcRH1-His (manufactured by R&D Systems) was measured by a surface plasmon resonance method (SPR method) using Biacore8K+ (manufactured by Cytiva).
(§2) The binding activity of the anti-FCRL1 antibody was measured as follows. An anti-human IgG antibody was immobilized on a CM5 sensor chip (manufactured by Cytiva) in accordance with the attached protocol using a Human Antibody Capture Kit (manufactured by Cytiva). An anti-FCRL1 antibody prepared at 5 μg/mL was added to a flow cell on which the Anti-human IgG antibody was immobilized at a flow rate of 10 μL/min for 30 seconds.
(§3) Next, hFCRL1/FcRH1-His, which is prepared stepwise to 5 concentrations by 3-fold dilution from 10000 ng/ml, was monitored at a flow rate of 30 μL/min for a binding reaction for 180 seconds and a dissociation reaction for 400 seconds. For the obtained sensorgram, a kinetic constant of each antibody was calculated by fitting by a Steady state affinity model or a 1:1 Binding model using Bia Evaluation Software (manufactured by Cytiva). The calculated binding rate constant (ka), dissociation rate constant (kd) and dissociation constant [KD] of each antibody are shown in Table 5. The chDK681 is referred to as DK681 F01, and the chDK1142 is referred to as DK1142 F02.

[2] = biological target: T2, cynomolgus monkey FCRL1 (XP_015310712), …; assay: flow cytometry on 293T cells transiently expressing cynomolgus monkey FCRL1; apparent KD from EC50 of a 4-parameter fit
Procedure: (§4) An antigen-specific reactivity of the novel anti-human FCRL1 mouse antibody obtained in Example 4 was evaluated by Flow Cytometry (FCM). FCRL1 antigen-expressing cells were prepared by transiently expressing the recombinant FCRL1 antigen on 293T cells. A codon-optimized cDNA was synthesized based on the amino acid sequence of human FCRL1 (NCBI accession number: NP_443170.1) or cynomolgus monkey FCRL1 (XP_015310712), and a fragment in which the sequence of an internal ribosome entry site (IRES) derived from the encephalomyocarditis virus (EMCV) and the sequence of TagBFP were arranged in tandem was cloned into pcDNA 3.1hygro to construct an expression plasmid vector for human FCRL1 or cynomolgus monkey FCRL1. The purified expression vector was transfected into 293T cells, cells were collected 2 days after transfection, and binding with each antibody was confirmed by FCM.
(§5) As the secondary antibody, when the sample is a mouse antibody, R-Phycoerythrin (PE) F(ab′)₂ Fragment Goat Anti-Mouse IgG (H+L) (Jackson ImmunoResearch) was used, and when the sample is a human antibody or a human chimeric antibody, R-Phycoerythrin (PE) F(ab′)₂ Fragment Goat Anti-Human IgG, Fcγ Fragment Specific (Jackson ImmunoResearch) was used. A solution of each secondary antibody was prepared by diluting the stock solution 200 times with an FCM buffer. After washing once, cells in each well were suspended with 100 μL of FCM buffer, and binding to each antibody was confirmed by flow cytometry (FCM).
(§6) Cells that transiently expressed human FCRL1 or cynomolgus monkey FCRL1 were reacted with a 3-fold dilution series of each antibody starting from 100 nM (15 μg/ml) at 12 points. Data obtained by the FCM was analyzed, and a binding amount of each antibody bound to the cell was calculated as a fluorescence amount MFI derived from the PE-labeled secondary antibody. An antibody concentration and the measured MFI were plotted with respect to a logarithm of the antibody concentration, a saturated binding curve of each antibody was obtained, and regression was performed by a 4-parameter logistic model.

[3] = biological target: T3, human FCRL1 (NCBI accession number: …); assay: flow cytometry on 293T cells transiently expressing human FCRL1; apparent KD from EC50 of a 4-parameter fit
Procedure: as §4, §5, §6

[4] = biological target: T1, hFCRL1/FcRH1-His (manufactured by R&D …); assay: SPR (Biacore 8K+), antibody captured by anti-human IgG, hFCRL1/FcRH1-His as analyte; 1:1 Binding model
Procedure: as §1, §2, §3

| Kd [2] | Kd [3] | Binder | also measured |
| --- | --- | --- | --- |
| – | – | DK681 humanized antibody DK681 F13, human IgG1 (S239C) (antibody) heavy: not shown light: DIVMTQSPDSLAVSLGERATMNCKSSQSLLYSSNQKNYLAWYQQKPGQSPKLLIYWASTRESGVPDRFSGSGSGTDFTLTISSLQAEDVAIYYCQQYSNYPTFGQGTKVEIK | Kd [1]: 9.84 nM; koff [1]: 0.00297 s⁻¹; kon [1]: 387000 M⁻¹ s⁻¹ |
| 1.4 nM | 2.3 nM | anti-human FCRL1 mouse monoclonal antibody DK1164 (antibody, V domains shown) VH: QVQLQQSGTELVRPGTSVKVSCKASGYAFTNYLIEWVKQRPGQGLEWIGVINPGSGGTDYNKKFKGKAMLTADKSSNTAYMQLSSLTSDDSAVYFCARSNSYAMDYWGQGTSVTVSS VL: DIVMSQSPSSLAVSVGEKVTVSCKSSQSLLYSGNQKNNLAWYKQKPGQSPKLLIYWASTRESGVPDRFTGSGSGTDFTLTMSSVKAEDLAVYYCQQYYSYPWTFGGGTKLEIK | – |
| 1.1 nM | 1.4 nM | anti-human FCRL1 mouse monoclonal antibody DK1142 (antibody, V domains shown) VH: QVQLQQSGPELVKPGASVRISCKASGYTFTSYNIHWVKQRPGQGLEWIGWIYPGDGNPKYNEKFKGKTTLTADKSSSTAYMQLSSLTSEDSAVYFCARRIHYYDYFDYWGQGTTLTVSS VL: DVLMTQTPLSLPVSLGDQASISCRSSQSIVHSNGNTYLEWYLQKPGQSPKLLIYKVSNRFSGVPDRFSGSGSGTDFTLKISRVEADDLGVYYCFQGSHVPWTFGGGTKLEIK | – |
| – | – | DK1142 chimeric antibody (chDK1142), human IgG1 (S239C) (antibody, also called DK1142 F02; not shown: human kappa light chain constant region (pFUSE2-CLIg-hk vector)) heavy: not shown light: DVLMTQTPLSLPVSLGDQASISCRSSQSIVHSNGNTYLEWYLQKPGQSPKLLIYKVSNRFSGVPDRFSGSGSGTDFTLKISRVEADDLGVYYCFQGSHVPWTFGGGTKLEIK | Kd [4]: 11.4 nM; koff [4]: 0.0518 s⁻¹; kon [4]: 4.55e+06 M⁻¹ s⁻¹ |
| 1 nM | 1.5 nM | anti-human FCRL1 mouse monoclonal antibody DK1166 (antibody, V domains shown) VH: QVQLQQSGPELVKPGASVRISCKASGYTFTSYNIHWVKQRPGQGLEWIGWIYPGDGNTKYNEKFKGKTTLTADKSSSTAYMQLSSLTSEDSAVYFCARRIHYFDYFDYWGQGTTLTLSS VL: DVLMTQTPLSLPVSLGDQVSISCRSGQTIVHSNGNTYLEWYLQKPGQSPKLLIYKVSNRFSGVPDRFSGSGSGTDFTLRISRVEAEDLGVYYCFQGSHVPWTFGGGTKLEIK | – |
| 0.8 nM | 1.6 nM | anti-human FCRL1 mouse monoclonal antibody DK1141 (antibody, V domains shown) VH: EVRLVESGGRLVQPKGSLRLSCAVSGFTFNTYAMYWIRQAPGKGLEWVARIRSKTNNFATYYADSVKDRFTISRDDSQSMLYLQMNNLKTEDTAMYYCVRDNSGSFDYWGQGTTLTVSS VL: DIVMAQSPSSLAVSVGEKVTMSCKSSQSLLHSSNQKNYLAWYQQKPGQSPNLLIYWASSRESGVPDRFTGSGSGTDFTLTISSVQAEDLATYYCQQYYSYPTFGAGTKLDLK | – |
